Data set [1] deals with T1, RecGMtb (Mycobacterium tuberculosis H37Rv, UniProt P9WMQ7 1-737).
T1 sequence: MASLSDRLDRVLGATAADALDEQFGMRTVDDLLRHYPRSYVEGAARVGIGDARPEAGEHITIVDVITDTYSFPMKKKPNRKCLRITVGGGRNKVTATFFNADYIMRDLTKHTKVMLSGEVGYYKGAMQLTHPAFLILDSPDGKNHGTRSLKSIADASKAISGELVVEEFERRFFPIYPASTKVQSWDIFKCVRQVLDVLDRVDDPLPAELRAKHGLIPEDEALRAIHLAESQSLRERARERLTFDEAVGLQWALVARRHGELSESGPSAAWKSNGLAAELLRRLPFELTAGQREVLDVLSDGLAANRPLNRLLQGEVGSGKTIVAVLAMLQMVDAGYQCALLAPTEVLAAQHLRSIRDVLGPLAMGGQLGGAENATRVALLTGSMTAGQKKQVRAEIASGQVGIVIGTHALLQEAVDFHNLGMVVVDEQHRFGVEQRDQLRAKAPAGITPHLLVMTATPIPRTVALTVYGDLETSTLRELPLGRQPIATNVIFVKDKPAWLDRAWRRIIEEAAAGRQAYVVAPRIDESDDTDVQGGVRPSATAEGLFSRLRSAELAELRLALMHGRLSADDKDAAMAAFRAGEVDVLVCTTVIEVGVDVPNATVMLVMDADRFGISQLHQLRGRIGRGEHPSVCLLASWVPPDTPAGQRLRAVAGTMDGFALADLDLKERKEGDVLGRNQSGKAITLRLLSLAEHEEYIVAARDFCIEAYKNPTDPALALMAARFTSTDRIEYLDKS
Put plainly: EMSA; 5 mM EDTA, poly(dI-dC). The following applies: protein: recombinant, tags: N-terminal His6 cleaved off with thrombin (pET28b), label: 32P 5' end.

The target of data set [2] is T1, RecGMtb. Put plainly: EMSA; no poly(dI-dC); 1 uM RecG. The following applies: protein: recombinant; tags: N-terminal His6 cleaved off with thrombin (pET28b); label: 32P 5' end.
In data set [3] the target is T1, RecGMtb. Put plainly: EMSA; 5 mM EDTA, poly(dI-dC); 2 uM RecG. The following applies: protein: recombinant; tags: N-terminal His6 cleaved off with thrombin (pET28b); label: 32P 5' end; bubble 1:2.

B1: lagging strand replication fork (substrate E) (structured_DNA)
DNA 1: GTCGGATCCTCTAGACAGCTCCATGATCACTGGCACTGGTAGAATTCGGC
DNA 2: CAACGTCATAGACGATTACATTGCTACATGGAGCTGTCTAGAGGATCCGA
DNA 3: TAGCAATGTAATCGTCTATGACGTT
In the case of B1, the binding result in the data set with RecGMtb [1] (fork 1:2 2:3) is “binds”. Regarding TTTTTTTTTTTTTTTTTTTTTTTTTTTTTTTTTTTTTTTT (ssDNA) [poly(dT) 40 nt], the binding result with RecGMtb [2] is “binds”.

B2: 3'-tailed duplex (oligos 1+2) (dsDNA)
DNA 1: CGTGACATGCCGTGACTAGCTTTTTTTTTTTTTTTTTTTT
DNA 2: GCTAGTCACGGCATGTCACG
Consider B2, for which the binding result with RecGMtb [1] (3' overhang 20 nt (T20)) is on record as “no binding”.

B3: bubble (substrate I) (structured_DNA)
DNA 1: GGGTGAACCTGCAGGTGGGCGGCTGCTCATCGTAGGTTAGTTGGTAGAATTCGGCAGCGTC
DNA 2: GACGCTGCCGAATTCTACCAGTGCCTTGCTAGGACATCTTTGCCCACCTGCAGGTTCACCC
With B3, the binding result with RecGMtb [3] is “binds”.

B4: Holliday junction (substrate H) (structured_DNA)
DNA 1: GACGCTGCCGAATTCTGGCTTGCTAGGACATCTTTGCCCACGTTGACCC
DNA 2: TGGGTCAACGTGGGCAAAGATGTCCTAGCAATGTAATCGTCTATGACGTT
DNA 3: CAACGTCATAGACGATTACATTGCTAGGACATGCTGTCTAGAGACTATCGA
DNA 4: ATCGATAGTCTCTAGACAGCATGTCCTAGCAAGCCAGAATTCGGCAGCGT
With B4, in the data set with RecGMtb [1], the binding result is “binds”.

B5: 5'-tailed duplex (oligos 3+2) (dsDNA)
DNA 1: TTTTTTTTTTTTTTTTTTTTCGTGACATGCCGTGACTAGC
DNA 2: GCTAGTCACGGCATGTCACG
For B5, the binding result with RecGMtb [1] (5' overhang 20 nt (T20)) is given as “no binding”.

Source of the values: article PMC3542137, “Mycobacterium tuberculosis RecG binds and unwinds model DNA substrates with a preference for Holliday junctions”.
